Reference: article PMC11077089, “Molecular basis of A. thaliana KEOPS complex in biosynthesizing tRNA t6A”
Substitutions are numbered along the chain they refer to.

Key:
[1] = biological target: T1, KAE1;BUD32 L165K;CGI121;PCC1 (Arabidopsis thaliana;Arabidopsis …, UniProt O49653;Q94K14;Q6NMZ4;Q8GWD7 1-353;1-226;1-172;1-96, |L165K||); assay: EMSA; MST: 20 mM PBS pH 7.5, 300 mM NaCl, 0.05% Tween 20, 25 C, 50 nM RNA; EMSA: 20 mM Tris-HCl pH 7.5, 300 mM NaCl, 5 mM b-mercaptoethanol, 20% glycerol, agarose gel in Tris-glycine pH 8.0 (8.5 for FAM-RNA), 4 C; details: protein: recombinant;recombinant;recombinant;recombinant; tags: none (6His on partner PCC1);;6His (C-term);6His (C-term); chain copies: 2;2;2;2; label: 5' 6-FAM; tRNA cloverleaf
T1 sequence 1: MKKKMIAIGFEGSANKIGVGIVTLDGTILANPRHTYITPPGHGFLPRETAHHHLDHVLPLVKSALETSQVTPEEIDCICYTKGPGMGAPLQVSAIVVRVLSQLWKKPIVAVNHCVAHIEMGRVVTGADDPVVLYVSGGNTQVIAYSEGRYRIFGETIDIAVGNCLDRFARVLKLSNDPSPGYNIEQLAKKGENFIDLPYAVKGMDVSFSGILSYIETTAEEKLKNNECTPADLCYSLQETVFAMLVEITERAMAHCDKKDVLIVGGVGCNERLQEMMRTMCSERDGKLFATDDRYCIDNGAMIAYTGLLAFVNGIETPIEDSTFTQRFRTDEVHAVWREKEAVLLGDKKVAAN
T1 sequence 2: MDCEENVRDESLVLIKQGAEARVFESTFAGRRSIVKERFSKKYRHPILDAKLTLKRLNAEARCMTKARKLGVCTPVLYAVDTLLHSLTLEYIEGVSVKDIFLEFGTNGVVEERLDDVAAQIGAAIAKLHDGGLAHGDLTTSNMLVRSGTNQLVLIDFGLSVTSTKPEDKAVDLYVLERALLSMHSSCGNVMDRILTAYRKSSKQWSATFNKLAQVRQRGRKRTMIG
T1 sequence 3: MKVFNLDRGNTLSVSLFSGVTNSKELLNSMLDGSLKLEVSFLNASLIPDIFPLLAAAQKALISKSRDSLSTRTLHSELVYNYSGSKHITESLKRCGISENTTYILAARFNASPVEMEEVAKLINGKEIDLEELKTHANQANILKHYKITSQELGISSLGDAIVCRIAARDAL
T1 sequence 4: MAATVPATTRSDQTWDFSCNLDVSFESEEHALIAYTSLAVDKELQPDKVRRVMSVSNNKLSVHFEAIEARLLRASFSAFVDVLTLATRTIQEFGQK

[2] = biological target: T2, KAE1;BUD32 I47K;CGI121;PCC1 (Arabidopsis thaliana;Arabidopsis …, UniProt O49653;Q94K14;Q6NMZ4;Q8GWD7 1-353;1-226;1-172;1-96, |I47K||); assay: as above; details: protein: recombinant;recombinant;recombinant;recombinant; tags: none (6His on partner PCC1);;6His (C-term);6His (C-term); chain copies: 2;2;2;2; label: 5' 6-FAM; tRNA cloverleaf
T2 sequence 1: T1 sequence 1
T2 sequence 2: T1 sequence 2 with I47K, K165L
T2 sequence 3: T1 sequence 3
T2 sequence 4: T1 sequence 4

[3] = biological target: T3, KAE1;PCC1 (Arabidopsis thaliana;Arabidopsis …, UniProt O49653;Q8GWD7 1-353;1-96, |); assay: as above; details: protein: recombinant;recombinant; tags: none (6His on partner PCC1);6His (C-term); chain copies: 2;2; label: 5' 6-FAM; tRNA cloverleaf
T3 sequence 1: T1 sequence 1
T3 sequence 2: T1 sequence 4

[4] = biological target: T4, KAE1;BUD32 R220stop;CGI121;PCC1 (Arabidopsis thaliana;Arabidopsis …, UniProt O49653;Q94K14;Q6NMZ4;Q8GWD7 1-353;1-219;1-172;1-96, |del220-226||); assay: as above; details: protein: recombinant;recombinant;recombinant;recombinant; tags: none (6His on partner PCC1);;6His (C-term);6His (C-term); chain copies: 2;2;2;2; label: 5' 6-FAM; tRNA cloverleaf
T4 sequence 1: T1 sequence 1
T4 sequence 2: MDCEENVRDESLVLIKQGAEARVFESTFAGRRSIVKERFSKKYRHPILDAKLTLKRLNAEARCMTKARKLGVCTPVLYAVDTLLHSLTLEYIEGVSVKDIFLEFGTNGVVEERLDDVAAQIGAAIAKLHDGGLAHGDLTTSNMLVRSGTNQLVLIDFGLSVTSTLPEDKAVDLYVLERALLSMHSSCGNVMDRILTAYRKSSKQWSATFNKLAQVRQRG
T4 sequence 3: T1 sequence 3
T4 sequence 4: T1 sequence 4

[5] = biological target: T5, KAE1;BUD32;CGI121;PCC1 (Arabidopsis thaliana;Arabidopsis …, UniProt O49653;Q94K14;Q6NMZ4;Q8GWD7 1-353;1-226;1-172;1-96, |||); assay: MST; KEOPS dimer; MST: 20 mM PBS pH 7.5, 300 mM NaCl, 0.05% Tween 20, 25 C, 50 nM RNA; EMSA: 20 mM Tris-HCl pH 7.5, 300 mM NaCl, 5 mM b-mercaptoethanol, 20% glycerol, agarose gel in Tris-glycine pH 8.0 (8.5 for FAM-RNA), 4 C; details: protein: recombinant;recombinant;recombinant;recombinant; tags: none (6His on partner PCC1);none (6His on partner CGI121);6His (C-term);6His (C-term); chain copies: 2;2;2;2; label: 5' 6-FAM; tRNA cloverleaf
T5 sequence 1: T1 sequence 1
T5 sequence 2: T1 sequence 2 with K165L
T5 sequence 3: T1 sequence 3
T5 sequence 4: T1 sequence 4

B1: 5'-6FAM-tRNAArgCCU (structured_RNA)
RNA: GCGCCUGUAGCUCAGUGGAUAGAGCGUCUGUUUCCUAAGCAGAAGGUCGUAGGUUCGACCCCUACCUGGCGCGCCA
[1]
  binding result: binds
[2]
  binding result: binds
[3]
  binding result: no binding
[4]
  binding result: binds
[5]
  Kd: 18.1 ± 3.87 µM
